Source: publication doi:10.1101/2020.02.28.969287
Where two headings read alike, the source gives them in different places.

Tests used:
[1] = target: E. coli bo3 oxidase (E. coli) (UniProt P0ABJ3); experiment: SEC-MALS
[2] = target: E. coli bo3 oxidase (E. coli) (UniProt P0ABJ3); experiment: mass photometry
[3] = target: E. coli outer membrane protein F (OmpF) (E. coli) (UniProt P02931); experiment: native MS
[4] = target: E. coli outer membrane protein F (OmpF) (E. coli) (UniProt P02931); experiment: mass photometry
[5] = target: KcsA (pT7-KcsA construct, N-terminal His-tag) in native SMA nanodiscs (Streptomyces lividans) (UniProt P0A334); experiment: mass photometry + other: lipid-to-protein ratio
[6] = target: potassium channel KcsA from Streptomyces lividans (pET-28a construct, N-terminal His-tag) (Streptomyces lividans) (UniProt P0A334); experiment: mass photometry
[7] = target: potassium channel KcsA from Streptomyces lividans (pET-28a construct, N-terminal His-tag) (Streptomyces lividans) (UniProt P0A334); experiment: mass photometry; remark: listed apart in the source

Which relative abundance of dimers [1] does the source give for “E. coli bo3 oxidase (from UniProt P0ABJ3 1-204) (complex)” here?
The relative abundance of dimers was 28%.

And the relative abundance of monomers [1]?
Its relative abundance of monomers is 72%.

And the stoichiometry N [1]?
The stoichiometry N was 2.

What about the relative abundance of dimers [2] of the same substance?
Its relative abundance of dimers is 20%.

What about the relative abundance of monomers [2] of the same substance?
The relative abundance of monomers was 80%.

What about the stoichiometry N [2] of the same substance?
The stoichiometry N was 2.

Which stoichiometry N [3] does the source give for “E. coli outer membrane protein F (OmpF) (from UniProt P02931 23-362) (natural protein)” here?
Its stoichiometry N is 3.

What about the stoichiometry N [4] of the same substance?
The stoichiometry N was 3.

For “KcsA (pT7-KcsA construct, N-terminal His-tag) in native SMA nanodiscs (from UniProt P0A334 1-160) (natural protein)”, which stoichiometry N [5] is on record?
The stoichiometry N was 8.

“potassium channel KcsA from Streptomyces lividans (pET-28a construct, N-terminal His-tag) (from UniProt P0A334 1-160) (natural protein)” was tested. Which stoichiometry N [6] did it give?
Its stoichiometry N is 4.

And the stoichiometry N [7]?
The stoichiometry N was 4.
